Measurements as given in US20080293089.

T1: S5a (substrate in the E3 ligase selectivity example), P55036
T1 chain: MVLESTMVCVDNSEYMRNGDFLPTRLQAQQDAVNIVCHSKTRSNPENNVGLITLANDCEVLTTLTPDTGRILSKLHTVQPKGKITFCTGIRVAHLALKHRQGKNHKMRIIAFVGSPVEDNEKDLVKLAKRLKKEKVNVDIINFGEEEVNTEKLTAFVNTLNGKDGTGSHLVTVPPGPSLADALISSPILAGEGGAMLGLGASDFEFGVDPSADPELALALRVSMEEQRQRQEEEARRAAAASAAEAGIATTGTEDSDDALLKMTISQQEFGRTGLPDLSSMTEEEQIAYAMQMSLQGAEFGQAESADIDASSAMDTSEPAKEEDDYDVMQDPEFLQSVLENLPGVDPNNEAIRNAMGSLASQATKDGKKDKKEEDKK

B1: His-CHIP (protein)
chain: MKGKEEKEGGARLGAGGGSPEKSPSAQELKEQGNRLFVGRKYPEAAACYGRAITRNPLVAVYYTNRALCYLKMQQHEQALADCRRALELDGQSVKAHFFLGQCQLEMESYDEAIANLQRAYSLAKEQRLNFGDDIPSALRIAKKKRWNSIEERRIHQESELHSYLSRLIAAERERELEECQRNHEGDEDDSHVRAQQACIEAKHDKYMADMDELFSQVDEKRKKRDIPDYLCGKISFELMREPCITPSGITYDRKDIEEHLQRVGHFDPVTRSPLTQEQLIPNLAMKEVIDAFISENGWVEDY
B2: GST-E6AP (protein)
chain: MEKLHQCYWKSGEPQSDDIEASRMKRAAAKHLIERYYHQLTEGCGNEACTNEFCASCPTFLRMDNNAAAIKALELYKINAKLCDPHPSKKGASSAYLENSKGAPNNSCSEIKMNKKGARIDFKDVTYLTEEKVYEILELCREREDYSPLIRVIGRVFSSAEALVQSFRKVKQHTKEELKSLQAKDEDKDEDEKEKAACSAAAMEEDSEASSSRIGDSSQGDNNLQKLGPDDVSVDIDAIRRVYTRLLSNEKIETAFLNALVYLSPNVECDLTYHNVYSRDPNYLNLFIIVMENRNLHSPEYLEMALPLFCKAMSKLPLAAQGKLIRLWSKYNADQIRRMMETFQQLITYKVISNEFNSRNLVNDDDAIVAASKCLKMVYYANVVGGEVDTNHNEEDDEEPIPESSELTLQELLGEERRNKKGPRVDPLETELGVKTLDCRKPLIPFEEFINEPLNEVLEMDKDYTFFKVETENKFSFMTCPFILNAVTKNLGLYYDNRIRMYSERRITVLYSLVQGQQLNPYLRLKVRRDHIIDDALVRLEMIAMENPADLKKQLYVEFEGEQGVDEGGVSKEFFQLVVEEIFNPDIGMFTYDESTKLFWFNPSSFETEGQFTLIGIVLGLAIYNNCILDVHFPMVVYRKLMGKKGTFRDLGDSHPVLYQSLKDLLEYEGNVEDDMMITFQISQTDLFGNPMMYDLKENGDKIPITNENRKEFVNLYSDYILNKSVEKQFKAFRRGFHMVTNESPLKYLFRPEEIELLICGSRNLDFQALEETTEYDGGYTRDSVLIREFWEIVHSFTDEQKRLFLQFTTGTDRAPVGGLGKLKMIIAKNGPDTERLPTSHTCFNVLLLPEYSSKEKLKERLLKAITYAKGFGML
B3: GST-Nedd4 (protein)
chain: MATCAVEVFGLLEDEENSRIVRVRVIAGIGLAKKDILGASDPYVRVTLYDPMNGVLTSVQTKTIKKSLNPKWNEEILFRVHPQQHRLLFEVFDENRLTRDDFLGQVDVPLYPLPTENPRLERPYTFKDFVLHPRSHKSRVKGYLRLKMTYLPKTSGSEDDNAEQAEELEPGWVVLDQPDAACHLQQQQEPSPLPPGWEERQDILGRTYYVNHESRRTQWKRPTPQDNLTDAENGNIQLQAQRAFTTRRQISEETESVDNRESSENWEIIREDEATMYSNQAFPSPPPSSNLDVPTHLAEELNARLTIFGNSAVSQPASSSNHSSRRGSLQAYTFEEQPTLPVLLPTSSGLPPGWEEKQDERGRSYYVDHNSRTTTWTKPTVQATVETSQLTSSQSSAGPQSQASTSDSGQQVTQPSEIEQGFLPKGWEVRHAPNGRPFFIDHNTKTTTWEDPRLKIPAHLRGKTSLDTSNDLGPLPPGWEERTHTDGRIFYINHNIKRTQWEDPRLENVAITGPAVPYSRDYKRKYEFFRRKLKKQNDIPNKFEMKLRRATVLEDSYRRIMGVKRADFLKARLWIEFDGEKGLDYGGVAREWFFLISKEMFNPYYGLFEYSATDNYTLQINPNSGLCNEDHLSYFKFIGRVAGMAVYHGKLLDGFFIRPFYKMMLHKPITLHDMESVDSEYYNSLRWILENDPTELDLRFIIDEELFGQTHQHELKNGGSEIVVTNKNKKEYIYLVIQWRFVNRIQKQMAAFKEGFFELIPQDLIKIFDENELELLMCGLGDVDVNDWREHTKYKNGYSANHQVIQWFWKAVLMMDSEKRIRLLQFVTGTSRVPMNGFAELYGSNGPQSFTVEQWGTPEKLPRAHTCFNRLDLPPYESFEELWDKLQMAIENTQGFDGVD
B4: GST-Murf1 (protein)
chain: MDYKSSLIQDGNPMENLEKQLICPICLEMFTKPVVILPCQHNLCRKCANDIFQAANPYWTSRGSSVSMSGGRFRCPTCRHEVIMDRHGVYGLQRNLLVENIIDIYKQECSSRPLQKGSHPMCKEHEDEKINIYCLTCEVPTCSMCKVFGIHKACEVAPLQSVFQGQKTELNNCISMLVAGNDRVQTIITQLEDSRRVTKENSHQVKEELSQKFDTLYAILDEKKSELLQRITQEQEKKLSFIEALIQQYQEQLDKSTKLVETAIQSLDEPGGATFLLTAKQLIKSIVEASKGCQLGKTEQGFENMDFFTLDLEHIADALRAIDFGTDEEEEEFIEEEDQEEEESTEGKEEGHQ
B5: GST-Siah2 (protein)
chain: MSRPSSTGPSANKPCSKQPPPQPQHTPSPAAPPAAATISAAGPGSSAVPAAAAVISGPGGGGGAGPVSPQHHELTSLFECPVCFDYVLPPILQCQAGHLVCNQCRQKLSCCPTCRGALTPSIRNLAMEKVASAVLFPCKYATTGCSLTLHHTEKPEHEDICEYRPYSCPCPGASCKWQGSLEAVMSHLMHAHKSITTLQGEDIVFLATDINLPGAVDWVMMQSCFGHHFMLVLEKQEKYEGHQQFFAIVLLIGTRKQAENFAYRLELNGNRRRLTWEATPRSIHDGVAAAIMNSDCLVFDTAIAHLFADNGNLGINVTISTCCP

Target: T1, S5a (substrate in the E3 ligase …)

| Protein | Ubiquitinated S5a? |
| --- | --- |
| B1 | Yes |
| B2 | Yes |
| B3 | Yes |
| B4 | Yes |
| B5 | Yes (low) |
